{"source": "patent US20070036810A1", "about": "“Cyclic amp response element activator proteins and uses related thereto” (priority 2003, published 2007)", "molecules": {"B1": {"name": "CREAP1: human CRE activating protein 1, 650 amino acids, SEQ ID NO 2; expressed from pCMVSPORT-CREAP1 (protein)", "chain": "MATSNNPRKFSEKIALHNQKQAEETAAFEEVMKDLSLTRAARLQLQKSQYLQLGPSRGQYYGGSLPNVNQIGSGTMDLPFQPSGFLGEALAAAPVSLTPFQSSGLDTSRTTRHHGLVDRVYRERGRLGSPHRRPLSVDKHGRQADSCPYGTMYLSPPADTSWRRTNSDSALHQSTMTPTQPESFSSGSQDVHQKRVLLLTVPGMEETTSEADKNLSKQAWDTKKTGSRPKSCEVPGINIFPSADQENTTALIPATHNTGGSLPDLTNIHFPSPLPTPLDPEEPTFPALSSSSSTGNLAANLTHLGIGGAGQGMSTPGSSPQHRPAGVSPLSLSTEARRQQASPTLSPLSPITQAVAMDALSLEQQLPYAFFTQAGSQQPPPQPQPPPPPPPASQQPPPPPPPQAPVRLPPGGPLLPSASLTRGPQPPPLAVTVPSSLPQSPPENPGQPSMGIDIASAPALQQYRTSAGSPANQSPTSPVSNQGFSPGSSPQHTSTLGSVFGDAYYEQQMAARQANALSHQLEQFNMMENAISSSSLYSPGSTLNYSQAAMMGLTGSHGSLPDSQQLGYASHSGIPNIILTVTGESPPSLSKELTSSLAGVGDVSFDSDSQFPLDELKIDPLTLDGLHMLNDPDMVLADPATEDTFRMDRL", "modifications": "human"}}, "key": {"[1]": {"molecular_target": "T1, CREB-GAL4 fusion molecule (UniProt P04386+P16220)", "T1 construct": "host or cells: HLR cell line (5x GAL4 element-luciferase reporter)", "T1 sequence (P04386+P16220 fused)": "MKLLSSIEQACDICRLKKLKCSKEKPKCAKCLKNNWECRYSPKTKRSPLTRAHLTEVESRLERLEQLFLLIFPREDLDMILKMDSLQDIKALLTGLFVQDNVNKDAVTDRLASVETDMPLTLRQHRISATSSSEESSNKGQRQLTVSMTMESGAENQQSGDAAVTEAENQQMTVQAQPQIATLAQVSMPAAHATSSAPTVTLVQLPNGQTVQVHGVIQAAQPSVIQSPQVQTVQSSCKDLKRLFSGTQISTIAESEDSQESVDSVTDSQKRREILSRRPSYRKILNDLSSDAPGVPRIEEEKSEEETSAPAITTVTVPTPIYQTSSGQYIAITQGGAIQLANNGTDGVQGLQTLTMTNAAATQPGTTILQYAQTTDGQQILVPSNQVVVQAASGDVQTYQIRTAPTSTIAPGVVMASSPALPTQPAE", "assay": "In vivo kinase assay, CREB-GAL4 fusion in HLR cells", "format": "cell-based", "details": "40 hours after transfection", "method": "For in vivo kinase assay, activation domains of CREB or ATF2 transcription factors fused with the yeast GAL4 DNA binding domain (1-147 Amino Acids) constructs are used (Stratagene, PathDetect In Vivo Signal Transduction Pathway trans-reporting Systems). The HLR cell line that contains a 5× GAL4 DNA binding element and TATA box driving luciferase reporter is used per manufacturer's protocol (Stratagene). 10^4 HLR cells are split into each well of 96 well tissue culture plates. After 16 hours, cells are transfected with 100 ng of Creb-GAL4 or ATF2-GAL4 fusion constructs, 30 ng of Renilla luciferase control plasmid together with 100 ng of pCMVSPORT6, pCMVSPORT-CREAP1, pFC-PKA or pFC-MEKK (Stratagene) activator plasmids respectively. Transfection is done with Fugene6 reagent (Roche Molecular Biochemicals, Basel, Switzerland) according to the manufacturers manual. Forty hours after transfection, a Dual-Glo Luciferase assay (Promega) is conducted using the manufacturer's protocol.\nAs CREAP1 strongly activates CRE promoter transcription, we next investigated whether CREAP1 works through the CREB pathway. […]"}, "[2]": {"system": "minimal promoter linked to multiple copies of CRE", "assay": "CRE-Luc reporter co-transfection assay with the CREAP gene family", "format": "cell-based", "details": "cotransfection, relative to empty pCMV-SPORT6 vector", "source_text": "The entire amino acid sequence for CREAP1 was used in a BLASTP search of a public NCBI database. Initially two public domain cDNAs (XM—117201 and FLJ00364) were identified that have significant homology to the CREAP1 coding region. The nucleotide sequence of XM—117201 was used in a BLASTN search (Altschul S. F. et al., Nucleic Acids Res. 25:3389-3402 (1997)) of a proprietary cDNA library EST database and 4 clones were identified that represent XM—117201 public sequence. All 4 clones were functionally tested upon co-transfection with the CRE-Luc and IL-8p-Luc reporters initially found to be induced by CREAP using methods similar to those disclosed above. Briefly, trypsinized HeLa cells are resuspended in complete growth media at 6×10^4 cells/ml and distributed into white 96-well plates (Costar) in the volume of 100 μl per well. Cells are left overnight in a tissue culture incubator at 37° C. and 5% CO2. pGL3B-IL-8p-Luc reporter plasmid or CRE-Luc reporter (BD Biosciences) as well as tested cDNAs are resuspended in OptiMEM I low serum media (GIBCO BRL) at 25 ng/ml. The reporter plasmids and cDNAs are then distributed into 96-well clean PCR plates (ABGene) at 4 μl/well and 3 μl/well respectively. Mixture containing Fugene 6 reagent (Roche Applied Bioscience) at 1.5 μl per transfection and pRL-SV40 (Promega) plasmid 20 ng per transfection is added in the volume of 10 μl per well of the 96-well PCR plate containing prediluted cDNAs. […]\nThe activity of firefly and Renilla luciferase is measured using the DualGlo Luciferase Assay System (Promega) following the protocol supplied by the manufacturer. Briefly, 115 μl of freshly reconstituted luciferase reagent is added to each well of the 96-well tissue culture plates with a Multidrop 384 and, after 15 minutes incubation, luminescence is read on a LUMINOSKAN Ascent Luminometer (Thermo Labsystems) with a 400 msec integration time. Subsequently, 115 μl of Stop-and-Glo reagent is added to each well of the 96-well tissue culture and, after 15 minutes incubation, luminescence is read on a LUMINOSKAN Ascent Luminometer with a 200 msec integration time. The activity of each tested cDNA is measured as a ratio of the corresponding firefly and Renilla luciferase activities.\nTo investigate this, the ability of CREAP2 and CREAP3 to activate gene expression driven by the IL-8 promoter and a CRE-dependent promoter was tested in co-transfection assays as disclosed above. Briefly, the levels of expression of a luciferase reporter driven by either the IL-8 promoter or a minimal promoter linked to 4 copies of CRE were determined after cotransfection with either an empty pCMV-SPORT6 expression vector or with the same vector carrying a cDNA for CREAP1, CREAP2 or CREAP3. […]"}}}
{"molecule": "B1", "values": [{"measurement": "transactivation of the CREB-GAL4 fusion molecule on the GAL4 promoter", "setting": "[1]", "value": "strongly stimulates"}, {"measurement": "CRE: level of expression of luciferase relative to empty vector", "setting": "[2]", "value": 28.6}]}
